# B1: 3x Flag Matrin 3 wild-type (human) [human] / Aly (AlyRef) of NSC-34 cells [mouse (endogenous in NSC-34)] (parent complex)
# chain 1: MSKSFQQSSLSRDSQGHGRDLSAAGIGLLAAATQSLSMPASLGRMNQGTARLASLMNLGMSSSLNQQGAHSALSSASTSSHNLQSIFNIGSRGPLPLSSQHRGDADQASNILASFGLSARDLDELSRYPEDKITPENLPQILLQLKRRRTEEGPTLSYGRDGRSATREPPYRVPRDDWEEKRHFRRDSFDDRGPSLNPVLDYDHGSRSQESGYYDRMDYEDDRLRDGERCRDDSFFGETSHNYHKFDSEYERMGRGPGPLQERSLFEKKRGAPPSSNIEDFHGLLPKGYPHLCSICDLPVHSNKEWSQHINGASHSRRCQLLLEIYPEWNPDNDTGHTMGDPFMLQQSTNPAPGILGPPPPSFHLGGPAVGPRGNLGAGNGNLQGPRHMQKGRVETSRVVHIMDFQRGKNLRYQLLQLVEPFGVISNHLILNKINEAFIEMATTEDAQAAVDYYTTTPALVFGKPVRVHLSQKYKRIKKPEGKPDQKFDQKQELGRVIHLSNLPHSGYSDSAVLKLAEPYGKIKNYILMRMKSQAFIEMETREDAMAMVDHCLKKALWFQGRCVKVDLSEKYKKLVLRIPNRGIDLLKKDKSRKRSYSPDGKESPSDKKSKTDGSQKTESSTEGKEQEEKSGEDGEKDTKDDQTEQEPNMLLESEDELLVDEEEAAALLESGSSVGDETDLANLGDVASDGKKEPSDKAVKKDGSASAAAKKKLKKVDKIEELDQENEAALENGIKNEENTEPGAESSENADDPNKDTSENADGQSDENKDDYTIPDEYRIGPYQPNVPVGIDYVIPKTGFYCKLCSLFYTNEEVAKNTHCSSLPHYQKLKKFLNKLAEERRQKKET
# chain 2: not shown
# Variants of: B1
# Experiment: co-immunoprecipitation (Aly IP) followed by western blot, quantified; NSC-34 stable cell lines; five replicates; WT vs 622 p = 0.9611; read off a plot
row,ratio to parent,Variant
1,~1.2,chain 1 T622A

# Variants of: B1
# Experiment: co-immunoprecipitation (Aly IP) followed by western blot, quantified; NSC-34 stable cell lines; five replicates; WT vs 115: p = 0.9670; read off a plot
row,ratio to parent,Variant
1,~1.2,chain 1 F115C

# Variants of: B1
# Experiment: co-immunoprecipitation (Aly IP) followed by western blot, quantified; NSC-34 stable cell lines; five replicates; WT vs 154 p = 0.2250; read off a plot
row,ratio to parent,Variant
1,~1.6,chain 1 P154S

# Variants of: B1
# Experiment: co-immunoprecipitation (Aly IP) followed by western blot, quantified; NSC-34 stable cell lines; five replicates; WT vs 85: p = 0.6561; read off a plot
row,ratio to parent,Variant
1,~1.4,chain 1 S85C

# From PMC5674072 (2017)
